This is an account of results in US20240076396A1 (Regeneron, published 2024).

In assay [1] the target is T1, human GITR expressed on the cell surface (human, UniProt Q9Y5U5 26-241).
T1 sequence: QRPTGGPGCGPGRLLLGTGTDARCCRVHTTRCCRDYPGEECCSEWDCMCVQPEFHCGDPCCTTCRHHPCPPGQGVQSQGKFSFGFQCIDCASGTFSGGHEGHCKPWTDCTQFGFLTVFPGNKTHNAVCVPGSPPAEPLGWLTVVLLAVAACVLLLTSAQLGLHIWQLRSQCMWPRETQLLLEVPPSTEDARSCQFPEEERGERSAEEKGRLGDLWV
Put plainly: cell-based or functional assay.

The target of assay [2] is T2, cynomolgus monkey GITR expressed on the cell surface (Macaca fascicularis (cynomolgus monkey)).
T2 construct: whole, on cells; also called MfGITR; Jurkat/hCD20/MfGITR cells
In words: flow cytometry on Jurkat/hCD20/MfGITR cells. The protocol:
(§1) FIG. 5A, FIG. 5B, and FIG. 5C depict cell-surface binding of mAb1 and IgG1 isotype control at a range of concentrations (18 pM to 300 nM) on Jurkat/hCD20 (FIG. 5A), Jurkat/hCD20/hGITR (FIG. 5B), and Jurkat/hCD20/MfGITR (FIG. 5C) cells. Binding was detected using an Alexa647-labeled anti-human IgG by flow cytometry. Fluorescence intensity was plotted as geometric MFI. h, Human; Mf, Macaca fascicularis (cynomolgus monkey).
(§2) Flow cytometry was used to evaluate mAb1 binding to Jurkat/hCD20/hGITR cells and Jurkat/hCD20/MfGITR cells. Jurkat/hCD20 cells were used as a negative control cell line for GITR binding. Cells were added to a 96-well V-bottom plate (2×10⁵ to 4×10⁵ cells/well) and incubated in Fc block solution, followed by successive incubation on ice with primary antibody (mAb1 or IgG1 isotype control) at final concentrations ranging from 18 pM to 300 nM and a secondary antibody (AF647-conjugated anti-human IgG) at 5 μg/mL. […] Data were analyzed with Flow.lo software. For EC₅₀ (effective concentration at 50% activity) determinations, measured geometric MFI values were analyzed using a 4-parameter logistic equation over a 9-point response curve with GraphPad Prism. The fold binding was determined by taking the ratio of the highest MFI on the curve to the MFI of the wells containing secondary antibody only.

For assay [3], the target named is T3, hGITR.mFc (dimeric recombinant human GITR ectodomain protein, mouse Fc fusion) (human).
T3 construct: also called dimeric human GITR; dimeric GITR
T3 chain: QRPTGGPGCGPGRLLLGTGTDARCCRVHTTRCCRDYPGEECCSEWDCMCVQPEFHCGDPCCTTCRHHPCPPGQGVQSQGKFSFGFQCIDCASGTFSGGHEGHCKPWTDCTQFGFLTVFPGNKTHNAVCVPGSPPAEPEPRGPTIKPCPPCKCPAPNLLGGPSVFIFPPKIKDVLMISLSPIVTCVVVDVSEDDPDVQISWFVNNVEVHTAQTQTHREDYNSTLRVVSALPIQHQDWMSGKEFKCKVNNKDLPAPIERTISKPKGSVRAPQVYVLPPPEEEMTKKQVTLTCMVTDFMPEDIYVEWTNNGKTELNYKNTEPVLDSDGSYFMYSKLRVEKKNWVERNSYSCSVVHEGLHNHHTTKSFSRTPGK
In words: SPR Biacore 2000 25C; CHOt supernatant antibody captured on anti-human Fc; 50 nM hGITR.mFc. The protocol: Biacore experiments for antibodies secreted in conditioned culture medium were performed as follows. Using a Biacore 2000 instrument at 25° C., antibodies were captured for 80 seconds at a flow rate of 8 uL/min on a CM5 anti-humanFc-coupled surface. Approximately 1000-2000 RU of each antibody were captured. 100 nM hGITR.mmH (soluble monomeric hGITR, SEQ ID NO: 45) or 50 nM hGITR.mFc (dimeric Macaca fasicularis GITR, SEQ ID NO: 46) were injected over this surface for 2 minutes at a flow rate of 50 uL/min. Dissociation was measured for 2 minutes. The KD and t_{1/2} were calculated by fitting the double-referenced sensorgrams to a 1:1 binding model.

Assay [4] deals with T2, cynomolgus monkey GITR expressed on the …. In words: flow cytometry on Jurkat/hCD20/MfGITR cells; max MFI over secondary antibody alone. The protocol: as §2, with “μg/mL. Cells were then stained with LIVE/DEAD Fixable Green Dead Cell Stain according to the manufacturer's instructions.” for “μg/mL.”
^a The maximum MFI was the highest mean MFI value within the concentration range tested (18 pM to 300 nM). ^b Fold binding was calculated as the maximum MFI above background (secondary antibody alone). h, Human; Mf, Macaca fascicularis (cynomolgus monkey); ND, Not determined because concentration-dependent binding was not observed

The target of assay [5] is T1, human GITR expressed on the cell surface. Put plainly: flow cytometry on Jurkat/hCD20/hGITR cells. The protocol:
as §1, §2

B1: mAb1 (antibody, human IgG1, kappa, V domains shown)
VH: QVQLQESGPGLVKPSETLSLTCIVSGGSISGYFWNWIRQPPGKGLEWIGYIYYSGTTIYNPSLKSRFTISLDTSKNQFSLKLTSVTAADTAVYYCARESYDPSPRYFDHWGQGTLVTVSS
VL: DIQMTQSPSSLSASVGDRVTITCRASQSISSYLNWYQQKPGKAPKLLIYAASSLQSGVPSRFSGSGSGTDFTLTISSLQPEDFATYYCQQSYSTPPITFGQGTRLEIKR
notes: Human IgG1; N101D variant of CompAb1; also called N101D Variant; N101D
B1: in assay [1], the “EC50, ADCC against human primary CD8+ T-cells Donor 0200R, NK Donor 05001” value was found to be 139 pM; the “EC50, ADCC against human primary CD8+ T-cells Donor 0400N, NK Donor 04003” value is 76.4 pM; the “EC50, ADCC against human primary CD8+ T-cells Donor 0400N, NK Donor 05001” value worked out at 116 pM; the “EC50, ADCC against human primary CD8+ T-cells Donor 5100X, NK Donor 04003” value came out at 128 pM. In assay [1], the “EC50, ADCC against human primary CD8+ T-cells Donor 5100X, NK Donor 05001” value came out at 95.1 pM; the “EC50, ADCC against human primary Tregs Donor 0200R, NK Donor 04003” value was found to be 39.9 pM; the “EC50, ADCC against human primary Tregs Donor 0200R, NK Donor 05001” value stood at 64.7 pM; the “EC50, ADCC against human primary Tregs Donor 0400N, NK Donor 04003” value came out at 37.2 pM. For the same molecule, in assay [1], the “EC50, ADCC against human primary Tregs Donor 0400N, NK Donor 05001” value amounted to 44.9 pM; the “EC50, ADCC against human primary Tregs Donor 5100X, NK Donor 04003” value was found to be 88.8 pM; the “EC50, ADCC against human primary Tregs Donor 5100X, NK Donor 05001” value was found to be 83.4 pM. The same molecule had an EC50 in assay [2] of 3.52 nM. Moreover, in assay [3], the Kd came out at 0.0813 nM and the t1/2 was 345 min. For the same molecule, the “Fold Binding” value in assay [4] is 277 fold. Further, in assay [5], the response was half-maximal at 1.96 nM (EC50).
